From patent US8895303B2, “Method of cell culture and method of treatment comprising a vEPO protein variant” (Charite-Universitatsmedizin Berlin, priority 2006, dated 2014)

How the values were obtained:
[1] = system: bone marrow cells; test: Erythroid colony formation assay (CFU-E); assay type: cell-based, mouse; settings: 150 U/l mEPO or rhEPO, comparable protein concentrations of variants; no additional cytokines; counted at DIV2
Protocol: Bone marrow cells were harvested from tibia and femur of male […] mice (8-11 weeks) and resuspended in α-medium (supplemented with 10% fetal calf serum GOLD, 1% penicillium/streptavidine and 1% L-glutamine). Cells were seeded in […] Petri dishes (225.000 cells/dish) containing 8 parts Metho Cult SF 3236 methyl cellulose (StemCell Technologie Inc), 1 part cells and 2 parts a-medium mixed with HEK-cell preconditioned medium containing the EPO derivates (150 U/l in the case of murine EPO). 150 U/l of rhEPO (Roche) was used as positive control. Plates were incubated at 37° C. in a humidified atmosphere containing 5% CO2 for 48 hours. For evaluation only reddish colonies containing at least 6 hemoglobinised cells were taken into account.
Metho Cult SF 3236 triggers the formation of colonies (CFU-M, CFU-G or CFU-E) only after addition of the appropriate cytokines. […] The small irregular reddish colonies disappear by day 3.
In this assay, the hematopoietic potential of the variants was tested and compared to wild type form of EPO as well as rhEPO. The following conditions were prepared for comparison: medium from HEK cells transfected with pZ/EG as negative control, medium from HEK cells transfected with pZ/EG cells plus 150U/l rhEPO (Roche) as a positive control, and medium from HEK cells transfected with either pZ/EG-EPO-IRES (150 U/l murine EPO), pZ/EG-Splice-IRES (variant S; mS) or pZ/EG-G3-IRES (variant G3; mG3). At DIV2 only reddish colonies were counted containing at least 6 hemoglobinised cells. The results of three independent experiments are depicted in FIG. 5.

[2] = system: rat primary cortical neurons; test: Oxygen glucose deprivation (OGD) neuroprotection assay, LDH release; assay type: cell-based; settings: for neuroprotection (reduction in LDH release): OGD 3 h 15 min (higher level of damage)
Protocol: Rat primary neuronal cultures were obtained from E16 to early E19 embryos of Wistar rats (Bundesinstitut für gesundheitlichen Verbraucherschutz and Veterinärmedizin, Berlin, Germany). Cre-expressing mouse neurons were obtained from E16 embryos of heterozygous transgenic mice expressing Cre-recombinase under the control of the tubulin α-1 promoter (provided by Dr. U. Schweitzer; Experimental Endocrinology, Charité). Murine and rat cultures were prepared according to a modified protocol from Brewer (1995) J Neurosci Res. 42: 674-83. Cerebral cortex was isolated after removal of meninges and rinsed twice in PBS (Biochrom, Berlin, Germany). After 15 min incubation in trypsin/EDTA (0.05/0.02% w/v in PBS) at 37° C., tissues were rinsed twice in N-Med (modified Eagle's medium from Gibco with 10% fetal calf serum, 100 U penicillin plus streptomycin from Biochrom, 2 mM L-glutamine, 100 IE insulin/I, 10 mM HEPES and 44 mM glucose) and dissociated carefully in a small volume of N-Med using a Pasteur pipette. […]
For OGD, the culture medium was washed out by rinsing once with PBS. […] After 24 h, lactate dehydrogenase (LDH) activity was measured in the supernatants as an indicator of cell death.
For LDH measurement 25 μl of medium was mixed with 100 μl fresh β-NADH solution (0.15 mg/ml in 1×LDH-buffer; Sigma, reduced form) in a 96 wells plate (Greiner). 25 μl of 22.7 mM pyruvate (Sigma) was added immediately before placing the plate into the Reader (Thermo Labsystems; MRX^TC Revelation). […] LDH-concentration was calculated proportionally to the LDH-standard (Greiner, system calibrator). […]
For pretreatment with rhEPO, wild type mEPO, wild type hEPO or EPO variants the medium was removed to an end volume of 200 μl and filled up with 200 μl fresh NBM+B27 containing equimolar amounts (corresponding to 200 U/l rhEpo) of EPO or EPO variants, respectively. […] Cell death was assessed 24 h after OGD by measurement of LDH release. […]

Molecule | hematopoietic potential (formation of CFU-E) [1] | protection rate (reduction in LDH release) ([2]; OGD 1 h 40 min and 1 h 50 min) | neuroprotection (reduction in LDH release) [2]
mEPO: wild type mouse erythropoietin expressed in HEK cells (protein, listed as Mus musculus) MGVPERPTLLLLLSLLLIPLGLPVLCAPPRLICDSRVLERYILEAKEAENVTMGCAEGPRLSENITVPDTKVNFYAWKRMEVEEQAIEVWQGLSLLSEAILQAQALLANSSQPPETLQLHIDKAISGLRSLTSLLRVLGAQKELMSPPDTTPPAPLRTLTVDTFCKLFRVYANFLRGKLKLYTGEVCRRGDR | formation of cfu-e | no protection | 
mG3: murine EPO variant, peptide sequence SEQ ID NO 16 (protein, listed as Mus musculus) MGVPERPTLLLLLSLLLIPLGLPVLCAPPRLICDSRVLERYILEAKEAENVTMGCAEGPRLSENITVPDTKVNFYAWKRMEVEEQAIEVWQGLSLLSEAILQAQALLANFLRGKLKLYTGEVCRRGDR | lacked hematopoietic potential |  | ~60%
mS: murine EPO splice variant, peptide sequence SEQ ID NO 14 (protein, listed as Mus musculus) MGVPERPTLLLLLSLLLIPLGLPVLCAPPRLICDSRVLERYILEAKEAENVTMGCAEGPRLSENITVPDTKVNFYAWKRMEKELMSPPDTTPPAPLRTLTVDTFCKLFRVYANFLRGKLKLYTGEVCRRGDR | lacked hematopoietic potential |  | ~60%
